Target: HLA-A*0201 HLA class I MHC monomer (iTopia Epitope Discovery System, coated on plate) (human)
Test: overall rank from iTopia EDS and CEM T2 assays on HLA-A*0201

RANK F-Score: 2
Binder: SLLMWITQV (modifications not checked) [reference peptide 513 (NY-ESO-1), …]

From patent publication US20140178394A1
